Consider two molecules from patent publication CN117545772A (FUSION THERAPEUTICS INC, dated 2024).

Where “and” joins values, the source holds several entries; their conditions need not be identical. Equal values may be shown once.

The target of assay [1] is T1, 重组人CD123抗原(细胞外结构域，Sino Biological) (human, UniProt P26951 19-305).
T1 construct: Bought; also called 重组的纯化CD123抗原
T1 sequence: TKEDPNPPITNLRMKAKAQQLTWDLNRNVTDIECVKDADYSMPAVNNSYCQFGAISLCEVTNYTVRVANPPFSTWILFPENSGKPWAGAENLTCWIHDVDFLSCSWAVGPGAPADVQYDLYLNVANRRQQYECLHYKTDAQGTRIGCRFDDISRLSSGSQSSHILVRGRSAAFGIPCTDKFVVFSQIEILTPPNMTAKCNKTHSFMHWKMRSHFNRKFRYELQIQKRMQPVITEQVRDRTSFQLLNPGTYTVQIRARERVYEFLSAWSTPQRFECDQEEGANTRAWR
Nature of the assay: phage ELISA on captured recombinant antigen.

Assay [2] addresses T2, 人CD123 (在细胞上表达) (human, UniProt P26951 19-378).
T2 construct: Used for all cells that carry CD123; the cell is named under assay or readout; Expression construct for 293F bought from Invivogen; also called 白介素-3受体α链; 瞬时表达CD123的293F细胞
Briefly: flow cytometry on the C1R-CD1d cells expressing CD123 used for immunisation.

The target in assay [3] is T2, 人CD123 (在细胞上表达). Briefly: cell-based or functional assay.

B1: 抗CD123 VHH 1A3 (VHH)
VHH: EVQLVESGGGLVQAGGSLRLSCAASGRAINTYAMAWFRQAPGKERDFVATISYSGGTTDYAGSVKGRFTISRDNAENTVYLQMNSLKPEDTAVYYCAARDRYNPLARNYNYWGQGTQVTVSS
notes: also called 1A3抗体
In the case of B1, the binding result (in assay [1]; with 人CD123 (在细胞上表达) [2]) was “binds” each time.

B2: 1D2-5C8var1(Y105F)-Fc (bispecific antibody, V domains shown)
V domain 1: EVQLLESGGGSVQPGGSLRLSCAASGRPFSNYAMSWFRQAPGKEREFVSAISWSGGSTSYADSVKGRFTISRDNSKNTLYLQMNSLRAEDTAVYYCAAQFSGADFGFGRLGIRGYEYDYWGQGTQVTVSS
V domain 2: EVQLVESGGGLVQAGGSLRLSCAASGRTASSYVMGWFRQAPGKEREFVAVINWNGDSTYYTDSVKGRFAISRDNAKNTVYLQMNSLKPEDTAVYYCAADTRREWYRDGYWGPPARYEYDYRGQGTQVTVSS
With B2, in the assay with 人CD123 (在细胞上表达) [3], the “EC50 of T细胞介导的THP-1靶细胞的细胞毒性 (24小时)” value was 1 pM and 3 pM; the “THP-1裂解的EC50 (2号供体)” value was 1 pM; the “THP-1靶细胞裂解的效力(EC50), THP-1:pDC:Vγ9Vδ2T 1:1:2共培养” value was roughly 1 pM; the “pDC裂解的EC50 (2号供体)” value came out at 11 pM. The molecule also showed a pDC裂解的EC50相对于THP-1裂解的EC50 with 人CD123 (在细胞上表达) [3] of roughly 10 fold.
